From patent publication US20170022281A1 (AbbVie / Abbott, published 2017)

Legend:
[1] = target: T1, human PRLR on cells (human, UniProt P16471 25-622); test: FACS T47D 10 ug/mL
T1 construct: Endogenous on T47D cells, transfected in Baf3-hPRLR cells; also called hPRLR; T47D cells
T1 sequence: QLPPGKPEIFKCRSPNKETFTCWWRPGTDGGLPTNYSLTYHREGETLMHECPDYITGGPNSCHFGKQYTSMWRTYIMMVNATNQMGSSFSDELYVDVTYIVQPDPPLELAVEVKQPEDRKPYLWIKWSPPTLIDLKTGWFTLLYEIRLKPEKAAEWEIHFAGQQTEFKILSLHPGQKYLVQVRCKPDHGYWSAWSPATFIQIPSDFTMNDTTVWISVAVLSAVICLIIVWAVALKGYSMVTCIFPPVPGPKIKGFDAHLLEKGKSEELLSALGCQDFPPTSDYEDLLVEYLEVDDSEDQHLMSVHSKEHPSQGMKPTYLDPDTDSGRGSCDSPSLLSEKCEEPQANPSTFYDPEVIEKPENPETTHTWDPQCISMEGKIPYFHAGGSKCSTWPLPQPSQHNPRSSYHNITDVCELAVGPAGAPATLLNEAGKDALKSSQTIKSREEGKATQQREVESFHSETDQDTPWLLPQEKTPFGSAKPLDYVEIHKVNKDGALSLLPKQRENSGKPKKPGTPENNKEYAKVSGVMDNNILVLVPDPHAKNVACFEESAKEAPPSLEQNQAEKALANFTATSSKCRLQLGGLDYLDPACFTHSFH

[2] = target: T2, rat PRLR on Nb2-11 rat lymphoma cells (rat, UniProt P05710 20-610); test: FACS Nb2-11 20 ug/mL
T2 construct: whole, on cells
T2 sequence (looked up): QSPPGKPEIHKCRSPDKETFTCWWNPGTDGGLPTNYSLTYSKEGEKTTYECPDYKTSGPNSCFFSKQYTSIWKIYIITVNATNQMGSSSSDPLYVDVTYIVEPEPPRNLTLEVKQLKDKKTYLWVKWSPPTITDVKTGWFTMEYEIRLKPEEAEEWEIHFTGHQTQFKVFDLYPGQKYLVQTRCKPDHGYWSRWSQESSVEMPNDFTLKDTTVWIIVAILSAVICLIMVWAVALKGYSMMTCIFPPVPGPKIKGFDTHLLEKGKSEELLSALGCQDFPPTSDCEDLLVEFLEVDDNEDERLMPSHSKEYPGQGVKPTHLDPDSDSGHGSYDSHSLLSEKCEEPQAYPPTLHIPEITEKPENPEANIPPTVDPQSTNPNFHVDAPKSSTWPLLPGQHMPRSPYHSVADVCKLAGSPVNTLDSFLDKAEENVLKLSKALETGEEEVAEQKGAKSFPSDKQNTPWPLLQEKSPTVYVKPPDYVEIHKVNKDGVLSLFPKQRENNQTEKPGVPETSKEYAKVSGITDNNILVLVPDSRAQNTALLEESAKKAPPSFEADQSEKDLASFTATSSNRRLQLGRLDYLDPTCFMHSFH
Protocol: (§1) Nb2-11 and Baf3-xPRLR cells were resuspended in FACS buffer (PBS+1% FBS) at 2 millions cells/mL. Cells were added to round bottom 96-well plate (100 uL/well) and treated with testing PRLR antibodies for 1 hr at 4 C. Cells were then washed with FACS buffer twice and incubated with 2nd antibody conjugated to ALEXA488 (Invitrogen) for 1 hr at 4 C. After two washes in FACS buffer, cells were resuspended in 1% formaldehyde in PBS. Cells were analyzed using LSRII flowcytometer.

[3] = target: T3, mouse PRLR on Baf3-mPRLR cells (mouse, UniProt Q08501 20-608); test: FACS Baf3-mPRLR 10 ug/mL
T3 construct: whole, on cells
T3 sequence (looked up): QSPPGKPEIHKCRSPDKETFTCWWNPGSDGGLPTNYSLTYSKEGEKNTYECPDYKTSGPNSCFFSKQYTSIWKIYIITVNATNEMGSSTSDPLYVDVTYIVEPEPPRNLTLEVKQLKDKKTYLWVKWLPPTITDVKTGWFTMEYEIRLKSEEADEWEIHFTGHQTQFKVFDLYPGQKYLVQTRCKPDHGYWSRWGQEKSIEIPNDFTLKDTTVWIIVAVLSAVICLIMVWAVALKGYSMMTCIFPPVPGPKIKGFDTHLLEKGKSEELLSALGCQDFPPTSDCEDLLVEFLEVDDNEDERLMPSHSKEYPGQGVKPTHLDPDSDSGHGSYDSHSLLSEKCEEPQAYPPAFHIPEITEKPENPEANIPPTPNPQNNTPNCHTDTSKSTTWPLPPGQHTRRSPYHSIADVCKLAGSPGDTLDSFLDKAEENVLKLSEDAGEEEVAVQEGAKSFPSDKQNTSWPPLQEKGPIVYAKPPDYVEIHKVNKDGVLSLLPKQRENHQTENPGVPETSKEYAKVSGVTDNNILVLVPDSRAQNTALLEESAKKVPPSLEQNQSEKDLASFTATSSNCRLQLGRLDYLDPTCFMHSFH
Protocol: as §1

[4] = target: T4, rat PRLR ECD-Fc fusion protein (rat, UniProt P05710 20-229); test: ELISA on ECD
T4 construct: extracellular domain; not shown: Fc region (captured by goat anti-human Fc)
T4 sequence (looked up): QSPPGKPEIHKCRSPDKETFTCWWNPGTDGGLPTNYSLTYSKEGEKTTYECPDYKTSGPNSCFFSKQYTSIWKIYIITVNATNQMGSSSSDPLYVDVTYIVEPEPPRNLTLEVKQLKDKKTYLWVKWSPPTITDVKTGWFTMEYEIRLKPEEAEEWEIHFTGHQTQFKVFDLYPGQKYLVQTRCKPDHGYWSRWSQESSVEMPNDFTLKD
Procedure, shortened: (§2)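 EC50 values derive from fitted binding curves of antibody serial dilutions (1 h) on captured PRLR. Detection used an HRP-conjugated secondary (1 h), TMB development for 3–5 min, an H₂SO₄ stop and a 450 nm read, with all steps in Tween/PBS pH 7.4 buffer.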

[5] = target: T5, mouse PRLR ECD-Fc fusion protein (mouse, UniProt Q08501 20-229); test: ELISA on ECD
T5 construct: extracellular domain; not shown: Fc region (captured by goat anti-human Fc)
T5 sequence (looked up): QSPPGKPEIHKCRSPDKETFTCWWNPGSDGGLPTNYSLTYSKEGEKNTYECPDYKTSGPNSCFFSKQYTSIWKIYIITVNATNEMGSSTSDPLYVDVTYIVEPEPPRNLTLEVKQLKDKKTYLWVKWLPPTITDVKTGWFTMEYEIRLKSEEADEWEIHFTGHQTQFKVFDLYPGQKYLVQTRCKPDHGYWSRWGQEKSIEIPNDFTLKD
Procedure, shortened: as §2

B1: Ab12 (antibody, V domains shown)
VH: DVQLQESGPGLVKPSQSLSLTCTVTGYSITSDYAWNWIRQFPGNKLEWMGYIGYSGRTSFNPSLKSRISITRDTSKNQFFLQLNSVTTEDTATYYCARGGFAMDYWGQGTSVTVSS
VL: QIVLTQSPGIMSASPGEKVTMTCSASSSVTYMYWYQQKPRSSPKPWIYLTSNLASGVPARFSGSGSGTSYSLTISSMEAEDGATYYCQQWSSTPPLTFGGGTKLELN
notes: murine monoclonal, isotype G2a; reported as PRLR agonist; also called murine Ab12
FACS GeoMean-neg [1]: 1680 | FACS GeoMean-neg [2]: 17 | FACS GeoMean-neg [3]: 90 | EC50 [4]: 116 pM | EC50 [5]: 121 pM
